Where two headings read alike, the source gives them in different places.
Key:
[1] = target: T1, recombinant 50 kD C-terminal BoNT/A domain (HC50A) (Clostridium botulinum, UniProt P0DPI1 861-1296)
[2] = target: T1, recombinant 50 kD C-terminal BoNT/A …; test: KinExA, solution phase
[3] = target: T1, recombinant 50 kD C-terminal BoNT/A …; test: KinExA Direct Kinetics method, […]; KinExA, solution phase
[4] = target: T1, recombinant 50 kD C-terminal BoNT/A …; test: SPR (Biacore 3000), 13A immobilized on CM5 chip, HC50A as analyte

B1: botulinum neurotoxin 13A antibody (human monoclonal antibody produced by hybridoma 13A, ATCC PTA-8871) (antibody, V domains shown)
VH: EVQLVESGGGLVQPGRSLRLSCTASGFTFGDSAMSWVRQAPGKGLEWVGFIRGKPYGGKPEYAASVKGRFTISRDDSKSIAYLQMNSLKTEDTAVYYCTAGMTTVTIYDYWGQGTLVTVSS
VL: QPLSVSVALGQTAGITCEGNNIGSKNVHWYQQKPGQAPVLVIYRDSNRPSGIPERFSGFNSGNTATLTISRVQAGDEADYYCQVWDSSTGVFGGGTELTVLG
**Q.** What does the source list for B1?
**A.** Kd [1]: 0.052 nM; Kd [2]: 0.097 nM; kon [3]: 7.2e+06 M⁻¹ s⁻¹; kon [4]: 1.7e+07 M⁻¹ s⁻¹

Reference: patent publication US20110008344A1 (THOMAS JEFFERSON UNIVERSITY, published 2011)
